Assay [1] has as its target Epidermal Growth Factor Receptor (EGFR) expressed on the surface of A431 cells (human (endogenous in A431)) (UniProt P00533). The assay is described as follows: on-cell binding assay (cell ELISA, chemiluminescence); as a1, but after the 5 min at 37 °C the plate was irradiated with 365-nm light for 10 min (33 mW per cm2) before washing and fixing; Kd from a sigmoidal nonlinear fit. (ELISA stands for enzyme-linked immunosorbent assay.)

The target in assay [2] is extracellular domain of EGFR (sEGFR) (UniProt P00533). The assay is described as follows: cross-linking; photocrosslinking in PBS, 10-μl reaction: 10 pmol sEGFR (or BSA) with 100 pmol 7D12 mutant (0-200 pmol in Fig. 2d), 5 min at 37 °C, 365-nm light for 10 min; PNGase F; denaturing SDS-PAGE, Coomassie; percent from band intensities.

By Kd is commonly meant the concentration at which binding is half-saturated. Substance 7D12-32pcY-109Bpa (VHH) gave a Kd in assay [1] of 103 nM. In assay [2], the percent crosslinked to EGFR was determined as 33%.

These data come from paper PMC10229432.
